Measurements taken from patent publication US20080227698A1, “OLIGOPEPTIDES FOR TREATMENT OF OSTEOPOROSIS AND OTHER BONE DISEASES AND METHODS THEREOF” (Washington University, priority 2005, published 2008).

Assays:
LRP5 = LRP5 (Homo sapiens, UniProt O75197); test: ^125I-DKK1 binding to LRP5, competition by Mesd or oligopeptide (FIG. 10B)
Procedure: In order to investigate the binding of Mesd polypeptide and an Mesd oligopeptide to either LRP5 or LRP6, binding assays were performed using ^125I-Mesd or ^125I-DKK1 (FIG. 10).

LRP6 [1] = target: T1, LRP6 (Homo sapiens, UniProt O75581); test: LRP6-mediated ^125I-Mesd degradation in LRP6-transduced HT1080 cells; type: cell-based; parameters: plasmid pCS-Myc-hLRP6 containing the full-length human LRP6 cDNA; HA; expressed in transfected cells; host or cells: human HT1080 cells, stably transduced (pLNCX2 retroviral vector); conditions: ^125I-Mesd 5 nM, 4 hours at 37° C.
T1 sequence (O75581 20-1613): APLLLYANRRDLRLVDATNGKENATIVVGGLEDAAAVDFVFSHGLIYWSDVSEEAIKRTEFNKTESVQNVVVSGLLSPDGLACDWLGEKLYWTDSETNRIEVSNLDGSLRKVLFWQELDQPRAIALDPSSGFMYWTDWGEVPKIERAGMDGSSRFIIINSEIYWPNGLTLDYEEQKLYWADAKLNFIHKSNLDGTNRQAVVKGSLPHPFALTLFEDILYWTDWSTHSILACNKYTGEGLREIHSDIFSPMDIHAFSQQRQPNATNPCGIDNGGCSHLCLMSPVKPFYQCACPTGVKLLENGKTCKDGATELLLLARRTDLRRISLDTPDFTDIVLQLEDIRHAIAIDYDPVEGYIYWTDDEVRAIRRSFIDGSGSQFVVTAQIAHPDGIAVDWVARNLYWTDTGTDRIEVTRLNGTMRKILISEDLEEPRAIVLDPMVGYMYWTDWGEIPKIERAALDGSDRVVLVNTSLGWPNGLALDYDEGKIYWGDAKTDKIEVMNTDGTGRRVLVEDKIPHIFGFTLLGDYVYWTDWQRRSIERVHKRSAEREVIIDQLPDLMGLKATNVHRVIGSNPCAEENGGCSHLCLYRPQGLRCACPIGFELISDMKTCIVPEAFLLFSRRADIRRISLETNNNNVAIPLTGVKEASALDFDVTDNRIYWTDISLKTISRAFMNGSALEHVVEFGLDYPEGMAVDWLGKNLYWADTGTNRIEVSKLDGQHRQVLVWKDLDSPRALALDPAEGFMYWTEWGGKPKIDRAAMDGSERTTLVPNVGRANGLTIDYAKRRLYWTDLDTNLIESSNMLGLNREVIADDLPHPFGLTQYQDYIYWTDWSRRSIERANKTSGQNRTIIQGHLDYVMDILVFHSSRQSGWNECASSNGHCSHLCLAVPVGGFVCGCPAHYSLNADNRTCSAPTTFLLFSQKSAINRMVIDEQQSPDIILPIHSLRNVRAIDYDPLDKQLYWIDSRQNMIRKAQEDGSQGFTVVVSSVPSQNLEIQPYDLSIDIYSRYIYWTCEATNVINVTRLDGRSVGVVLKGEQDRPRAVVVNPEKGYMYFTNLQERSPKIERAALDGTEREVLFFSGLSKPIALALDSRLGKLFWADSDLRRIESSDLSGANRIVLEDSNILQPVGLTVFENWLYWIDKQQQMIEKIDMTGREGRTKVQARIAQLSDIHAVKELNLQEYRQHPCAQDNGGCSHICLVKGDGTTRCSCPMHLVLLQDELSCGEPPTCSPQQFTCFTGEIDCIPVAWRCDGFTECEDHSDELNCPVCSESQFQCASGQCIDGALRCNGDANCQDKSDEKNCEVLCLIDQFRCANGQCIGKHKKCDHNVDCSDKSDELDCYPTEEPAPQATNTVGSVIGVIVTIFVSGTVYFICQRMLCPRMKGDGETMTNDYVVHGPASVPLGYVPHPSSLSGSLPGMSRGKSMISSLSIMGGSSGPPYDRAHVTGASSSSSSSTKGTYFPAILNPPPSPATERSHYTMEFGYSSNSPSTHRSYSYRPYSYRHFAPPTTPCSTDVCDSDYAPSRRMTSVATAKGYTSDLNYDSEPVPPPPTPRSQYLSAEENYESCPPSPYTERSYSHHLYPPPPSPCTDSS
Procedure: Ligand degradation was performed using the methods as described (Li, Y., J. Biol. Chem. 275: 17187-17194, 2000). Briefly, 2×10^5 cells were seeded into 12-well dishes 1 day prior to assay. Pre-warmed assay buffer (minimal Eagle's medium containing 0.6% BSA with radioligand, 0.6 ml/well) was added to cell monolayers in the absence or the presence of unlabeled 500 nM RAP or 500 nM Mesd, followed by incubation for 4 hours at 37° C. Thereafter, the medium overlying the cell monolayers was removed and proteins were precipitated by addition of BSA to 10 mg/ml and trichloroacetic acid to 20%. Degradation of radioligand was defined as the appearance of radioactive fragments in the overlying medium that were soluble in 20% trichloroacetic acid. Kinetic analysis of endocytosis LRP6-transduced HT1080 cells were plated in 12-well plates at a density of 2×10^5 cells/well and used after overnight culture. Cells were rinsed twice in ice-cold assay buffer (minimal Eagle's medium containing 0.6% BSA), and ^125I-anti-HA IgG was added at 1 nM final concentration in cold assay buffer (0.5 ml/well). The binding of ^125Ianti- HA IgG was carried out at 4° C. for 90 minutes with gentle rocking. Unbound ^125I-anti-HA IgG was removed by washing cell monolayers three times with cold assay buffer. Ice-cold stop/strip solution (0.2 M acetic acid, pH 2.6, 0.1 M NaCl) was added to one set of plates without warming up and kept on ice. The remaining plates were then placed in a 37° C. water bath and 0.5 ml assay buffer prewarmed to 37° C. was quickly added to cell monolayers to initiate internalization. After each time point, the plates were quickly placed on ice and the assay buffer was replaced with cold stop/strip solution. ^125I-anti-HA IgG that remained on the cell surface was stripped by incubation of cell monolayers with cold stop/strip solution for a total of 20 minutes (0.75 ml for 10 minutes, twice) and counted. Cell monolayers were then solubilized with low-SDS lysis buffer and counted. […] The fraction of internalized ^125I-anti-HA IgG after each time point was calculated and plotted. […]

LRP6 [2] = target: T1, LRP6; test: ^125I-DKK1 binding to LRP6-transduced HT1080 cells; parameters: plasmid pCS-Myc-hLRP6 containing the full-length human LRP6 cDNA; HA; expressed in transfected cells; host or cells: human HT1080 cells, stably transduced (pLNCX2 retroviral vector); conditions: 500 nM competitor, ^125I-DKK1 5 nM, 3 hours at 4° C.
Procedure: Cells (2×10^5) were seeded into 12-well dishes 1 day prior to assay. Ligand-binding buffer (minimal Eagle's medium containing 0.6% BSA with a different concentration of radioligand, 0.6 ml/well) was added to cell monolayers, in the absence or the presence of 500 nM unlabeled RAP or 500 nM unlabeled Mesd, followed with incubation for 0-4 hours at 4° C. Thereafter, overlying buffer containing unbound ligand was removed, and cell monolayers were washed and lysed in low-SDS lysis buffer (62.5 mM Tris-HCl pH 6.8, 0.2% SDS, 10% v/glycerol) and counted.
RAP is a receptor antagonist for members of the LDLR family, and is able to inhibit the binding of most known ligands of the LDLR family members. […] In these experiments, Serum-free conditioned medium was harvested from HEK293 cells transiently transfected with cDNA for human Myc-DKK1 and allowed to bind to LRP6-transduced HT1080 cells (B,C) and control cells (A) in the absence (A,B) or presence (C) of 1 μM Mesd. Cell-surface-bound Myc-tagged DKK proteins were fixed and detected by immunofluorescence staining with anti-Myc antibody. […] Binding of 125I-DKK1 (5 nM) to LRP6-transduced HT1080 cells or the control cells was carried out for 3 hours at 4° C. in the absence (total) or presence of 500 nM RAP or 500 nM Mesd. […] LRP6-mediated 125I-Mesd (5 nM) degradation was carried out for 4 hours at 37° C. in the absence or presence of 500 nM RAP or 500 nM Mesd. Values are the means of triple determinations with the s.d. indicated by error bars. Bar, 10 μm.

LRP6 [3] = target: T1, LRP6; test: Cell surface Myc-DKK1 binding and immunodetection on LRP6-transduced HT1080 cells; parameters: plasmid pCS-Myc-hLRP6 containing the full-length human LRP6 cDNA; HA; expressed in transfected cells; host or cells: human HT1080 cells, stably transduced (pLNCX2 retroviral vector); conditions: 1 μM Mesd, room temperature 60 minutes, immunofluorescence
From the text: Values are the means of triple determinations with the s.d. indicated by error bars. Bar, 10 μm.

Chain of LRP5 (O75197 32-1615): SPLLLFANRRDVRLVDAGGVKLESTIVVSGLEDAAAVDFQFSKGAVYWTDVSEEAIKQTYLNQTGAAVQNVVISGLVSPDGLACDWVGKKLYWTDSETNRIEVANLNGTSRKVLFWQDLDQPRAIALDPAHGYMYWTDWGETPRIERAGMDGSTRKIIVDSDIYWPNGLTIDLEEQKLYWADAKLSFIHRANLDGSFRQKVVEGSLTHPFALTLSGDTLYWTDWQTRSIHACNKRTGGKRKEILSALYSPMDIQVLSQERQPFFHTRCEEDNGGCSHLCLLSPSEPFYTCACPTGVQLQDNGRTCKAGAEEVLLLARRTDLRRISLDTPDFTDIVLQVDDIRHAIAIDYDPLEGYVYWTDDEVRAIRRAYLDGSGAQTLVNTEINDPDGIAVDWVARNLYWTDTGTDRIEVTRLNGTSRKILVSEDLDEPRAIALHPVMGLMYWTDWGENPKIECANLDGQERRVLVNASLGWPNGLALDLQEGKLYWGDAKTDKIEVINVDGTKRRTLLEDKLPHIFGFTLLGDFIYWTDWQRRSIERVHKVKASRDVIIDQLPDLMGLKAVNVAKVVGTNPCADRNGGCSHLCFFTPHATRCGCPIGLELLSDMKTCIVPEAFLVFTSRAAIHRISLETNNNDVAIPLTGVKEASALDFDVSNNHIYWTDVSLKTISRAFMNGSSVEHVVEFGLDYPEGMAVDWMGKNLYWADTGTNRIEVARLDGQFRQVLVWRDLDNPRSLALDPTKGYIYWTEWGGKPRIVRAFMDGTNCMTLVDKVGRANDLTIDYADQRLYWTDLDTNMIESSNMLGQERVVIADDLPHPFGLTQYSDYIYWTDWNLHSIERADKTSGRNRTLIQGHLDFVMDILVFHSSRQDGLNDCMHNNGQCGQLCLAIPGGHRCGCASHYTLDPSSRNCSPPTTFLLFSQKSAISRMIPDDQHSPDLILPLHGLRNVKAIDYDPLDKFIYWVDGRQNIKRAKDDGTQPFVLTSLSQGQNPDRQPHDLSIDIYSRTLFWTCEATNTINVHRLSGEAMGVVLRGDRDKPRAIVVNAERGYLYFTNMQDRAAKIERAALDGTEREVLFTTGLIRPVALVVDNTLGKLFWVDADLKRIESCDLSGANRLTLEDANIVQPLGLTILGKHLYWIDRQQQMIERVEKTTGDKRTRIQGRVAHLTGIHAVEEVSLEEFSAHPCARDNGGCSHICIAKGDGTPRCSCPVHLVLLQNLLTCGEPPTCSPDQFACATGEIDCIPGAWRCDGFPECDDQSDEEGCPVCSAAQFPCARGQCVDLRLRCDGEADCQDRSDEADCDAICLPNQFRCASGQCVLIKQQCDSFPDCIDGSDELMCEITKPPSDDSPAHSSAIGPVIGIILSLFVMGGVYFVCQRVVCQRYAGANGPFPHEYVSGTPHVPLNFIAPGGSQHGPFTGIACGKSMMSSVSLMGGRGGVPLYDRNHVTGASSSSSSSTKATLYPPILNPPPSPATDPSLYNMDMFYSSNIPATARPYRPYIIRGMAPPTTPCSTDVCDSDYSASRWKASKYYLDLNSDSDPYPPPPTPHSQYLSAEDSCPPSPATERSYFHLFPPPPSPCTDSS

B1: Mesd: recombinant wild-type mouse Mesd, polyhistidine tail at the N-terminus, lacks the signal peptide, expressed in E. coli (protein)
chain: ADTPGEATPPPRKKKDIRDYNDADMARLLEQWEKDDDIEEGDLPEHKRPSAPIDFSKLDPGKPESILKMTKKGKTLMMFVTVSGNPTEKETEEITSLWQGSLFNANYDVQRFIVGSDRAIFMLRDGSYAWEIKDFLVSQDRCAEVTLEGQMYPGKGGGSKEKNKTKPEKAKKKEGDRKPRASKEDNRAGSRREDL
modifications: left off: small tags and cut ends
notes: recombinant wild-type mouse Mesd, polyhistidine tail at the N-terminus, lacks the signal peptide, expressed in E. coli
- Reduction in binding of ^125I-DKK1 to LRP5 (LRP5): small but significant reduction
- Inhibition of ^125I-Mesd degradation (LRP6 [1]; 500 nM unlabeled competitor): completely
- ^125I-Mesd degradation level (LRP6 [1]; HT1080 cells transduced with LRP6): 320 fmoles/mg cell protein
- Effect of excess unlabeled competitor on increased DKK1 binding (LRP6 [2]): abolished
- Effect on binding of Myc-DKK1 to LRP6 at the cell surface (LRP6 [3]): completely blocked
